# Reference: PMC10761123 (RNA Biology, 2023)
# B1: Arabidopsis thaliana PUMY K185A mutant, C-terminal His-tagged, as crystallized (enzyme, UniProt Q84K35 21-330, looked up)
# chain: EANNKLRSLVKISPQVSEALSNGRAVVALESTIISHGMPYPQNLQTAKEVESIVRENGAIPATIAILNGVPCIGLSEEELERLASLGKSVQKTAGRDIANVVATRGNGATTVSATLFFASMVGIQVFVTGGIGGVHRHANHSMDISSDLTALGRTPIAVISAGVASILDIPKTLEYLETQEVYVAAYKSDEFPAFFTEKSGCKAPSRVNSPEDCARVIDANMKLNRQAGILFAIPIPKHHSAAGNLIESATQRALTEAREQNVTGNAETPFLLARVNELTGGTSLAANIALVKNNALIGSQIAVALSQLM
# Target: the molecule itself
# Test: crystal structure
protein,measurement,value
B1,stoichiometry N,3
